The results in this text go back to patent US8287888B2, “Thermosensitive polyphosphazene-bioactive molecule conjugates, preparation method thereof and use thereof” (Korea Institute of Science and Technology, priority 2006, dated 2012).

A short description of series [1]: Sol-gel phase transition with change of temperature (Brookfield rheometer). It counts as physicochemical. The settings on record: for Gel solidity (maximum viscosity of the polymer solution) / Max. gelling temp. (temperature where the viscosity of the polymer solution reaches the maximum point): 10 wt % in phosphate buffered saline (pH 7.4); for viscosity in 37° C.: compared among Examples 3, 4 and 9. How it is done:
The poly(organophosphazene) conjugated with a drug or bioactivemolecules obtained in Examples 1 to 11 were respectively dissolved in phosphate buffered saline (pH 7.4) at 4° C. so as to make solutions with concentrations of 10 wt %. The solutions were put into a chamber of a Brookfield DV-III+ Rheometer equipped with a thermostatic bath (TC-501).

A short description of series [2]: Hydrolysis of the polymer with time by GPC molecular weight. Type of series: physicochemical. The settings on record: 10 wt % in PBS pH 7.4, 37° C., compared among Examples 3, 4 and 9.
The subject of series [3] is human cervix adenocarcinoma (Hela). Put plainly: Anti-cancer activity in vitro, MTT. Type of series: cell-based. How it is done: (§1) In order to find out anticancer activity in vitro of the poly(organophosphazene) conjugated with anti-cancer drug of the present invention, the trial as follows was performed about the human breast adenocarcinoma (MCF-7, the Korea Cell Line Bank) and the human cervix adenocarcinoma (Hela, the Korea Cell Line Bank).
(§2) For the in vitro cell experiment, in order to measure the genesistasis concentration to 50% (IC50) toward the cancer cell of the poly(organophosphazene) conjugated with anticancer drug, the analytical method using 3-(4,5-dimethylthiazol-2-yl)-2,5-diphenyl-2H-tetrazolium bromide (MTT) was performed [T. Mosmann, J. Immunol. Method, 65, (1985) 55].
(§3) The materials for to measuring were respectively melted in the DMSO (dimethylsulfoxide) of the small amount, and they were diluted to the distilled water with 200 times. The materials solution were added to the cancer cell that is MCF-7(the Korea Cell Line Bank) and Hela (the Korea Cell Line Bank). Then, they were added to 96-well microtiter plater to 1.0×10^4 cell/ml (the concentration of the cancer cell). And they were cultivated for 2, 3, 4 days, respectively, with 37° C. in 5% CO2 condition.
(§4) MTT solution (20 μl) was mixed the cultivated cell with, and they were more cultivated for 4 hours with 37° C. in 5% CO2 condition. After the upper culture medium of each cell was removed, DMSO (100 μl) was added to a well and they were shaken in the room temperature to the plate shaker with for 20 minutes, thereby dissolving the formazan crystal generated by reducing of MTT.

In series [4] the test system is human breast adenocarcinoma (MCF-7). Put plainly: Anti-cancer activity in vitro, MTT. Type of series: cell-based. How it is done:
as §1, §2, §3, §4

Consider “poly[(isoleucineethylester)(aminomethoxypolyethyleneglycol 550)(glycylglycine)(glycylglycyldoxorubicin)phosphazene] [Example 3]”, for which, in series [1], the “Gel solidity (maximum viscosity of the polymer solution)” value turned out to be 158 Pa · s. Besides, the “Max. gelling temp. (temperature where the viscosity of the polymer solution reaches the maximum point)” value in series [1] amounted to 38 °C. Moreover, the “viscosity in 37° C.” value in series [1] was “the highest viscosity”. The “speed of hydrolysis (reduced molecular weight by GPC)” value in series [2] was “the most slowly hydrolyzed”. The “Anti-cancer activity [IC50]” value in series [3] (2nd day) is 1.477 µg/mL; in series [3] (3rd day) it was 1.065 µg/mL; in series [3] (4th day), 0.605 µg/mL; in series [4] (MCF-7, 2nd day), 2.294 µg/mL; in series [4] (MCF-7, 3rd day) it was 0.926 µg/mL; in series [4] (MCF-7, 4th day) it was 0.798 µg/mL.

In the case of “poly[(isoleucineethylester)(aminomethoxypolyethyleneglycol 550)(glycylglycine)(glycylglycylglycmethylester)(glycylglycylglycin-arginine-glycin-asparagine-cerinicacidpeptied)phosphazene] [Example 9]”, in series [1], the “Gel solidity (maximum viscosity of the polymer solution)” value worked out at 130 Pa · s, the “Max. gelling temp. (temperature where the viscosity of the polymer solution reaches the maximum point)” value is 46 °C and the “viscosity in 37° C.” value is on record as “the lowest viscosity”. Further, the “speed of hydrolysis (reduced molecular weight by GPC)” value in series [2] is on record as “the most quickly hydrolyzed”.
